How the values were obtained:
[1] = system: HeLa Kyoto; test: thermal stability score vs G1/S (z-score of summed log2 fold changes over temperatures); higher = more thermally stable than in G1/S
[2] = system: HeLa Kyoto; test: melting temperature (median over replicates), in situ; higher = more thermally stable
[3] = system: HeLa Kyoto; test: solubility in G1/S (NP-40 vs SDS abundance) (log2 ratio); higher = more soluble; conditions: cell cycle stage: G1/S
[4] = system: HeLa Kyoto; test: solubility change mitosis vs G1/S (difference of NP-40 vs SDS log2 ratios) (log2 ratio difference); higher = more soluble in mitosis
[5] = cell cycle stage: early G1 (4.5 h after nocodazole release)
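Throughout, for melting temperature (median over replicates), in situ: HeLa Kyoto cells synchronized by double thymidine or nocodazole block, proteins quantified by TMT10plex mass spectrometry, three independent biological replicates.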
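Throughout, for solubility change mitosis vs G1/S (difference of NP-40 vs SDS log2 ratios): synchronized HeLa Kyoto cells (double thymidine block for G1/S, nocodazole release for mitosis), protein amounts in NP-40 versus SDS lysates quantified by mass spectrometry, three biological replicates.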
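Throughout, for solubility in G1/S (NP-40 vs SDS abundance): HeLa Kyoto cells arrested at G1/S by double thymidine block, proteins quantified by TMT10plex mass spectrometry in mild NP-40 versus SDS extracts, three biological replicates.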
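Throughout, for thermal stability score vs G1/S (z-score of summed log2 fold changes over temperatures): synchronized HeLa Kyoto cells, proteins quantified by TMT10plex mass spectrometry, three biological replicates, mitosis taken 0.5 h after nocodazole release, G1/S directly after double thymidine block.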

| Substance | thermal stability score [1, 5] | thermal stability score ([1]; cell cycle stage: mitosis) | melting temperature ([2]; cell cycle stage: G1/S) | melting temperature ([2]; cell cycle stage: mitosis) | solubility in G1/S (log2) [3] | solubility change mitosis (log2) [4] |
| --- | --- | --- | --- | --- | --- | --- |
| MDVRRLKVNELREELQRRGLDTRGLKAELAERLQAALEAEEPDDERELDADDEPGRPGHINEEVETEGGSELEGTAQPPPPGLQPHAEPGGYSGPDGHYAMDNITRQNQFYDTQVIKQENESGYERRPLEMEQQQAYRPEMKTEMKQGAPTSFLPPEASQLKPDRQQFQSRKRPYEENRGRGYFEHREDRRGRSPQPPAEEDEDDFDDTLVAIDTYNCDLHFKVARDRSSGYPLTIEGFAYLWSGARASYGVRRGRVCFEMKINEEISVKHLPSTEPDPHVVRIGWSLDSCSTQLGEEPFSYGYGGTGKKSTNSRFENYGDKFAENDVIGCFADFECGNDVELSFTKNGKWMGIAFRIQKEALGGQALYPHVLVKNCAVEFNFGQRAEPYCSVLPGFTFIQHLPLSERIRGTVGPKSKAECEILMMVGLPAAGKTTWAIKHAASNPSKKYNILGTNAIMDKMRVMGLRRQRNYAGRWDVLIQQATQCLNRLIQIAARKKRNYILDQTNVYGSAQRRKMRPFEGFQRKAIVICPTDEDLKDRTIKRTDEEGKDVPDHAVLEMKANFTLPDVGDFLDEVLFIELQREEADKLVRQYNEEGRKAGPPPEKRFDNRGGGGFRGRGGGGGFQRYENRGPPGGNRGGFQNRGGGSGGGGNYRGGFNRSGGGGYSQNRWGNNNRDNNNSNNRGSYNRAPQQQPPPQQPPPPQPPPQQPPPPPSYSPARNPPGASTYNKNSNIPGSSANTSTPTVSSYSPPQPSYSQPPYNQGGYSQGYTAPPPPPPPPPAYNYGSYGGYNPAPYTPPPPPTAQTYPQPSYNQYQQYAQQWNQYYQNQGQWPPYYGNYDYGSYSGNTQGGTSTQ [HNRNPUL1] | 3.72 | 6.44 | 46.9 °C | 49.2 °C | -0.152 | -0.0379 |
| DOCK1 | 0.388 | 0.518 | 50.7 °C | 50 °C | -0.195 | -0.0711 |
| MPGKLKVKIVAGRHLPVMDRASDLTDAFVEVKFGNTTFKTDVYLKSLNPQWNSEWFKFEVDDEDLQDEPLQITVLDHDTYSANDAIGKVYIDIDPLLYSEAATVISGWFPIYDTIHGIRGEINVVVKVDLFNDLNRFRQSSCGVKFFCTTSIPKCYRAVIIHGFVEELVVNEDPEYQWIDRIRTPRASNEARQRLISLMSGELQRKIGLKVLEMRGNAVVGYLQCFDLEGESGLVVRAIGTACTLDKLSSPAAFLPACNSPSKEMKEIPFNEDPNPNTHSSGPSTPLKNQTYSFSPSKSYSRQSSSSDTDLSLTPKTGMGSGSAGKEGGPFKALLRQQTQSALEQREFPFFTLTAFPPGFLVHVGGVVSARSVKLLDRIHNPDEPETRDAWWAEIRQEIKSHAKALGCHAVVGYSESTSICEEVCILSASGTAAVLNPRFLQDGTVEGCLEQRLEENLPTRCGFCHIPYDELNMPFPAHLTYCYNCRKQKVPDVLFTTIDLPTDATVIGKGCLIQARLCRLKKKAQAEANATAISNLLPFMEYEVHTQLMNKLKLKGMNALFGLRIQITVGENMLMGLASATGVYLAALPTPGGIQIAGKTPNDGSYEQHISHMQKKINDTIAKNKELYEINPPEISEEIIGSPIPEPRQRSRLLRSQSESSDEVTELDLSHGKKDAFVLEIDDTDAMEDVHSLLTDVPPPSGFYSCNTEIMPGINNWTSEIQMFTSVRVIRLSSLNLTNQALNKNFNDLCENLLKSLYFKLRSMIPCCLCHVNFTVSLPEDELIQVTVTAVAITFDKNQALQTTKTPVEKSLQRASTDNEELLQFPLELCSDSLPSHPFPPAKAMTVEKASPVGDGNFRNRSAPPCANSTVGVVKMTPLSFIPGAKITKYLGIINMFFIRETTSLREEGGVSGFLHAFIAEVFAMVRAHVAALGGNAVVSYIMKQCVFMENPNKNQAQCLINVSGDAVVFVRESDLEVVSSQQPTTNCQSSCTEGEVTT [C2CD5] | 0.25 | -0.02 | 52.2 °C | 52.3 °C | 0.000995 | -0.067 |
| MAEPFLSEYQHQPQTSNCTGAAAVQEELNPERPPGAEERVPEEDSRWQSRAFPQLGGRPGPEGEGSLESQPPPLQTQACPESSCLREGEKGQNGDDSSAGGDFPPPAEVEPTPEAELLAQPCHDSEASKLGAPAAGGEEEWGQQQRQLGKKKHRRRPSKKKRHWKPYYKLTWEEKKKFDEKQSLRASRIRAEMFAKGQPVAPYNTTQFLMDDHDQEEPDLKTGLYSKRAAAKSDDTSDDDFMEEGGEEDGGSDGMGGDGSEFLQRDFSETYERYHTESLQNMSKQELIKEYLELEKCLSRMEDENNRLRLESKRLGGDDARVRELELELDRLRAENLQLLTENELHRQQERAPLSKFGD [HEXIM1] | -4.2 | -2.03 | 57.6 °C | 55.5 °C | 0.211 | 0.123 |

Source: the supplement of paper PMC5998384
